Measured values from patent publication US6670167.

Experiments:
[1] = molecular target: T1, Syntide-2, synthetic substrate peptide PLARTLSVAGLPGKK
T1 chain: PLARTLSVAGLPGKK

[2] = molecular target: T2, N-terminus acetylated Syntide-2
T2 chain: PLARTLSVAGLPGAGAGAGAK

Biotin-Syntide-2 = molecular target: T3, Biotin-Syntide-2
T3 chain: KAGAGPLARTLSVAGLPGK

B1: Full Length Chk1 (amino acids 1-476 of SEQ ID NO. 2), preparation HA2-013 (protein)
chain: MAVPFVEDWDLVGTLGEGAYGEVQLAVNRVTEEAVAVKIVDMKRAVDCPENIKKEICINKMLNHENVVKFYGHRREGNIQYLFLEYCSGGELFDRIEPDIGMPEPDAQRFFHQLMAGVVYLHGIGITHRDIKPENLLLDERDNLKISDFGLATVFRYNNRERLLNKMCGTLPYVAPELLKRREFHAEPVDVWSCGIVLTAMLAGELPWDQPSDSCQEYSDWKEKKTYLNPWKKIDSAPLALLHKILVENPSARITIPDIKKDRWYNKPLKKGAKRPRVTSGGVSESPSGFSKHIQSNLDFSPVNSASSEENVKYSSSQPEPRTGLSLWDTSPSYIDKLVQGISFSQPTCPDHMLLNSGLLGTPGSSQNPWQRLVKRMTRFFTKLDADKSYQCLKETCEKLQYQWKKSCMNQVTISTTDRRNNKLIFKVNLLEMDDKILVDFRLSKGDGLEFKRHFLKIKGKLIDIVSSQKVWLPATHHHHHH
- Activity [1]: 1 (control)
- Rate/min (/min (at 75 nM enzyme)) [1]: 0.019

B2: Kinase Domain Chk1 (1-289), C-terminally 6xHis-tagged (protein)
chain: MAVPFVEDWDLVGTLGEGAYGEVQLAVNRVTEEAVAVKIVDMKRAVDCPENIKKEICINKMLNHENVVKFYGHRREGNIQYLFLEYCSGGELFDRIEPDIGMPEPDAQRFFHQLMAGVVYLHGIGITHRDIKPENLLLDERDNLKISDFGLATVFRYNNRERLLNKMCGTLPYVAPELLKRREFHAEPVDVWSCGIVLTAMLAGELPWDQPSDSCQEYSDWKEKKTYLNPWKKIDSAPLALLHKILVENPSARITIPDIKKDRWYNKPLKKGAKRPRVTSGGVSESPSGHHHHHH
- Activity [2]: 72%
- Activity (Biotin-Syntide-2): 67%
- Rate/min (/min (at 7.3 nM enzyme)) [1]: 0.02
